Here are results for eight proteins from publication PMC6751238, “The first fungal laccase with an alkaline pH optimum obtained by directed evolution and its application in indigo dye decolorization” (AMB Express, 2019).

Changes are numbered by the printed parent chain. Numbers in names are those of the source.

As usually defined, the Km is the substrate concentration at which the rate is half of its maximum. As usually defined, the kcat is the maximal rate divided by the concentration of active sites. Broadly, the kcat/Km is the turnover number divided by the Michaelis constant.

Substrate in data set [1]: COc1ccccc1O
Put plainly: purified protein.

Substrate in data set [2]: COc1cccc(OC)c1O
Put plainly: purified protein. Format: biochemical, Coprinopsis cinerea.

The mark [3] stands for this setting: pH 6.5, 70 °C as printed in table (text says 60 °C), pH 6.5.
Where [4] appears, read: PIE5, pH 8.5, 60 °C, pH 8.5, 60.0 °C.

B1: rLcc9 (Coprinopsis cinerea okayama7#130; E116K/I393T) (protein)
chain: QILGPTSTMTVSNIDASPDGFNRPVVAVNGQHPGPLVRANKGDNFRINVVNDLNDPTMLRQTSVHWHGVFQHGTAWADGPDGVTQCPIAQNGESFKYRFNAGNEAGTFWYHSHFGTQYCDGLRGPLVIYDPNDPHRNLYDVDNADTVITLVDWYHLQAPSIEGPALSDATLINGKGRRPGGPETDIAIVNVQRNRRYRFRLVSMSCDPNYKFSIDGHKLTVIEADGQLTEPLMVDEIQIFAGQRYSFVLSANRPVGNYWIRAIPNVGSNNLPNFSSGGINSAILRYAGAPNANPTSTPVTNPVALHESNLHALLNPGAPGGSGPADENIVLQMGLGPAGFEINGVTWANPDSPVMVQIMNGVPPADIVPSGATHTLPRNRVVEVSIPGFELAGPHPFHLHGHAFSVVRSAGSSTYNYENPVRRDVVDVGGASDNVTIRFTTDNPGPWFFHCHIEFHLVLGLAMVFMEAPSDIPSTSPPPPSWSELCPKFESLPASATSIQIVPTP
For the protein B1, in data set [1] (pH 6.5, 60 °C, pH 6.5, 60.0 °C), the Km came out at 110 µM, the kcat was determined as 46 s⁻¹ and the kcat/Km worked out at 390000 M⁻¹ s⁻¹.

B2: rLcc9 (Coprinopsis cinerea okayama7#130; E116K) (protein)
chain: B1 chain with T373I
Regarding B2, in data set [1] (pH 6.5, 60 °C, pH 6.5, 60.0 °C), the Km is 320 µM, the kcat is 85.8 s⁻¹ and the kcat/Km worked out at 250000 M⁻¹ s⁻¹.

B3: rLcc9 (Coprinopsis cinerea okayama7#130) (protein)
chain: B1 chain with K96E, T373I
notes: lcc9 cDNA in pPIC9K (EcoRI/NotI), secreted from Pichia pastoris GS115, purified (DEAE-Sepharose); PIE5 = E116K/N229D/I393T
In the case of B3, in data set [1] (setting [3]), the Km worked out at 90 µM, the turnover number (kcat) worked out at 22.8 s⁻¹ and the kcat/Km is 250000 M⁻¹ s⁻¹. In data set [2] (pH 6.5, 60 °C), the Km stood at 2300 µM, the kcat is 69.4 s⁻¹ and the kcat/Km was found to be 30000 M⁻¹ s⁻¹.

B4: rLcc9 (Coprinopsis cinerea okayama7#130; E116K/I393T/N229D) (protein)
chain: B1 chain with N209D
notes: as for B3
Consider B4, for which, in data set [1] (setting [4]), the Km came to 330 µM, the kcat came to 62.9 s⁻¹ and the kcat/Km worked out at 180000 M⁻¹ s⁻¹. Also, in data set [2] (PIE5, pH 8.0, 60 °C), the Km is 5700 µM, the kcat was found to be 43.5 s⁻¹ and the kcat/Km was determined as 7500 M⁻¹ s⁻¹.

B5: rLcc9 (Coprinopsis cinerea okayama7#130; E116K/N229D) (protein)
chain: B1 chain with N209D, T373I
Turning to B5, in data set [1] (pH 8.0, 60 °C, pH 8.0, 60.0 °C), the Km amounted to 340 µM, the turnover number (kcat) is 75.4 s⁻¹ and the kcat/Km was 210000 M⁻¹ s⁻¹.

B6: rLcc9 (Coprinopsis cinerea okayama7#130; N229D) (protein)
chain: B1 chain with K96E, N209D, T373I
notes: as for B3
For the protein B6, in data set [1] (pH 8.0, 60 °C, pH 8.0, 60.0 °C), the Km came out at 370 µM, the kcat amounted to 87.3 s⁻¹ and the kcat/Km was determined as 230000 M⁻¹ s⁻¹. Moreover, in data set [2] (pH 8.0, 60 °C), the Km amounted to 2600 µM, the kcat turned out to be 66.2 s⁻¹ and the kcat/Km was 25000 M⁻¹ s⁻¹.

B7: rLcc9 (Coprinopsis cinerea okayama7#130; I393T/N229D) (protein)
chain: B1 chain with K96E, N209D
With B7, in data set [1] (pH 8.0, 60 °C, pH 8.0, 60.0 °C), the Km amounted to 340 µM, the kcat worked out at 82.5 s⁻¹ and the kcat/Km is 230000 M⁻¹ s⁻¹.

B8: rLcc9 (Coprinopsis cinerea okayama7#130; I393T) (protein)
chain: B1 chain with K96E
notes: as for B3
Turning to B8, in data set [1] (pH 7.0, 60 °C, pH 7.0, 60.0 °C), the Km came to 140 µM, the turnover number (kcat) came out at 83.9 s⁻¹ and the kcat/Km amounted to 570000 M⁻¹ s⁻¹. In data set [2] (pH 7.0, 60 °C), the Km was determined as 1200 µM, the catalytic constant (kcat) amounted to 49.2 s⁻¹ and the kcat/Km was determined as 38000 M⁻¹ s⁻¹.
